± gives the standard deviation of the averaged measurements.
Assay: total protein half-life in vivo (active degradation + dilution); higher = more stable protein
[1] = E. coli NCM3722 delta-clpP delta-lon delta-hslV, growth: N-lim chemostat, doubling time 6 h
[2] = E. coli NCM3722 delta-clpP, growth: N-lim chemostat, doubling time 6 h
[3] = E. coli NCM3722 delta-hslV, growth: N-lim chemostat, doubling time 6 h
[4] = E. coli NCM3722 delta-lon, growth: N-lim chemostat, doubling time 6 h
[5] = E. coli NCM3722 delta-smpB, growth: N-lim chemostat, doubling time 6 h
[6] = wild type E. coli NCM3722, growth: C-lim chemostat, doubling time 3 h
[7] = wild type E. coli NCM3722, growth: C-lim chemostat, doubling time 6 h
[8] = wild type E. coli NCM3722, growth: C-lim chemostat, doubling time 12 h
[9] = wild type E. coli NCM3722, growth: N-lim chemostat, doubling time 6 h
[10] = wild type E. coli NCM3722, growth: N-lim chemostat, doubling time 12 h
[11] = wild type E. coli NCM3722, growth: P-lim chemostat, doubling time 6 h
[12] = wild type E. coli NCM3722, growth: P-lim chemostat, doubling time 12 h

## MTTMNPFLVQSTLPYLAPHFDQIANHHYRPAFDEGMQQKRAEIAAIALNPQMPDFNNTILALEQSGELLTRVTSVFFAMTAAHTNDELQRLDEQFSAELAELANDIYLNGELFARVDAVWQRRESLGLDSESIRLVEVIHQRFVLAGAKLAQADKAKLKVLNTEAATLTSQFNQRLLAANKSGGLVVNDIAQLAGMSEQEIALAAEAAREKGLDNKWLIPLLNTTQQPALAEMRDRATREKLFIAGWTRAEKNDANDTRAIIQRLVEIRAQQATLLGFPHYAAWKIADQMAKTPEAALNFMREIVPAARQRASDELASIQAVIDKQQGGFSAQPWDWAFYAEQVRREKFDLDEAQLKPYFELNTVLNEGVFWTANQLFGIKFVERFDIPVYHPDVRVWEIFDHNGVGLALFYGDFFARDSKSGGAWMGNFVEQSTLNKTHPVIYNVCNYQKPAAGEPALLLWDDVITLFHEFGHTLHGLFARQRYATLSGTNTPRDFVEFPSQINEHWATHPQVFARYARHYQSGAAMPDELQQKMRNASLFNKGYEMSELLSAALLDMRWHCLEENEAMQDVDDFELRALVAENMDLPAIPPRYRSSYFAHIFGGGYAAGYYAYLWTQMLADDGYQWFVEQGGLTRENGLRFREAILSRGNSEDLERLYRQWRGKAPKIMPMLQHRGLNI
[1]
  total protein half-life in vivo: 5.48 ± 0.74 h
[2]
  total protein half-life in vivo: 4.67 ± 0.22 h
[3]
  total protein half-life in vivo: 4.335 ± 0.038 h
[4]
  total protein half-life in vivo: 4.65 ± 0.16 h
[5]
  total protein half-life in vivo: 4.43 ± 0.24 h
[6]
  total protein half-life in vivo: 3.13 ± 0.13 h
[7]
  total protein half-life in vivo: 5.67 ± 0.52 h
[8]
  total protein half-life in vivo: 9.87 ± 0.43 h
[9]
  total protein half-life in vivo: 4.53 ± 0.2 h
[10]
  total protein half-life in vivo: 7.84 ± 0.66 h
[11]
  total protein half-life in vivo: 6.12 ± 0.066 h
[12]
  total protein half-life in vivo: 11.7 ± 0.94 h

## MTTNYIFVTGGVVSSLGKGIAAASLAAILEARGLNVTIMKLDPYINVDPGTMSPIQHGEVFVTEDGAETDLDLGHYERFIRTKMSRRNNFTTGRIYSDVLRKERRGDYLGATVQVIPHITNAIKERVLEGGEGHDVVLVEIGGTVGDIESLPFLEAIRQMAVEIGREHTLFMHLTLVPYMAASGEVKTKPTQHSVKELLSIGIQPDILICRSDRAVPANERAKIALFCNVPEKAVISLKDVDSIYKIPGLLKSQGLDDYICKRFSLNCPEANLSEWEQVIFEEANPVSEVTIGMVGKYIELPDAYKSVIEALKHGGLKNRVSVNIKLIDSQDVETRGVEILKGLDAILVPGGFGYRGVEGMITTARFARENNIPYLGICLGMQVALIDYARHVANMENANSTEFVPDCKYPVVALITEWRDENGNVEVRSEKSDLGGTMRLGAQQCQLVDDSLVRQLYNAPTIVERHRHRYEVNNMLLKQIEDAGLRVAGRSGDDQLVEIIEVPNHPWFVACQFHPEFTSTPRDGHPLFAGFVKAASEFQKRQAK [P0A7E5]
[1]
  total protein half-life in vivo: 6.37 ± 0.47 h
[2]
  total protein half-life in vivo: 5.64 ± 0.39 h
[3]
  total protein half-life in vivo: 5.16 ± 0.13 h
[4]
  total protein half-life in vivo: 5.75 ± 0.15 h
[5]
  total protein half-life in vivo: 5.11 ± 0.71 h
[6]
  total protein half-life in vivo: 3.06 ± 0.25 h
[7]
  total protein half-life in vivo: 6.11 ± 0.39 h
[8]
  total protein half-life in vivo: 12.3 ± 1.2 h
[9]
  total protein half-life in vivo: 5.2 ± 0.22 h
[10]
  total protein half-life in vivo: 9.4 ± 0.35 h
[11]
  total protein half-life in vivo: 6.161 ± 0.058 h
[12]
  total protein half-life in vivo: 13.1 ± 0.8 h

## MTTQLEQAWELAKQRFAAVGIDVEEALRQLDRLPVSMHCWQGDDVSGFENPEGSLTGGIQATGNYPGKARNASELRADLEQAMRLIPGPKRLNLHAIYLESDTPVSRDQIKPEHFKNWVEWAKANQLGLDFNPSCFSHPLSADGFTLSHADDSIRQFWIDHCKASRRVSAYFGEQLGTPSVMNIWIPDGMKDITVDRLAPRQRLLAALDEVISEKLNPAHHIDAVESKLFGIGAESYTVGSNEFYMGYATSRQTALCLDAGHFHPTEVISDKISAAMLYVPQLLLHVSRPVRWDSDHVVLLDDETQAIASEIVRHDLFDRVHIGLDFFDASINRIAAWVIGTRNMKKALLRALLEPTAELRKLEAAGDYTARLALLEEQKSLPWQAVWEMYCQRHDTPAGSEWLESVRAYEKEILSRRG
[1]
  total protein half-life in vivo: 3.97 ± 0.74 h
[2]
  total protein half-life in vivo: 2.97 ± 0.12 h
[4]
  total protein half-life in vivo: 3.14 ± 0.07 h
[5]
  total protein half-life in vivo: 2.94 ± 0.21 h
[7]
  total protein half-life in vivo: 5.85 ± 1.9 h
[8]
  total protein half-life in vivo: 9.47 h
[10]
  total protein half-life in vivo: 3.73 h
[11]
  total protein half-life in vivo: 5.31 ± 0.18 h
[12]
  total protein half-life in vivo: 8.02 ± 5 h

## MTTRVIALDLDGTLLTPKKTLLPSSIEALARAREAGYQLIIVTGRHHVAIHPFYQALALDTPAICCNGTYLYDYHAKTVLEADPMPVIKALQLIEMLNEHHIHGLMYVDDAMVYEHPTGHVIRTSNWAQTLPPEQRPTFTQVASLAETAQQVNAVWKFALTHDDLPQLQHFGKHVEHELGLECEWSWHDQVDIARGGNSKGKRLTKWVEAQGWSMENVVAFGDNFNDISMLEAAGTGVAMGNADDAVKARANIVIGDNTTDSIAQFIYSHLI
[1]
  total protein half-life in vivo: 5.16 ± 0.18 h
[2]
  total protein half-life in vivo: 0.903 ± 0.047 h
[3]
  total protein half-life in vivo: 0.971 ± 0.12 h
[4]
  total protein half-life in vivo: 1.19 ± 0.11 h
[5]
  total protein half-life in vivo: 1.09 ± 0.013 h
[6]
  total protein half-life in vivo: 2.05 ± 0.096 h
[7]
  total protein half-life in vivo: 3.48 ± 1.5 h
[8]
  total protein half-life in vivo: 3.08 ± 0.64 h
[9]
  total protein half-life in vivo: 1.05 ± 0.02 h
[10]
  total protein half-life in vivo: 1.52 ± 0.12 h
[11]
  total protein half-life in vivo: 3 ± 0.29 h
[12]
  total protein half-life in vivo: 4.84 ± 0.26 h

## MTVKQTVEITNKLGMHARPAMKLFELMQGFDAEVLLRNDEGTEAEANSVIALLMLDSAKGRQIEVEATGPQEEEALAAVIALFNSGFDED [P0A9N0]
[1]
  total protein half-life in vivo: 4.886 ± 0.034 h
[2]
  total protein half-life in vivo: 2.96 h
[3]
  total protein half-life in vivo: 2.41 h
[4]
  total protein half-life in vivo: 2.28 h
[5]
  total protein half-life in vivo: 2.09 h
[6]
  total protein half-life in vivo: 2.15 ± 0.18 h
[7]
  total protein half-life in vivo: 3.27 ± 0.19 h
[8]
  total protein half-life in vivo: 4.27 h
[9]
  total protein half-life in vivo: 2.7 h
[10]
  total protein half-life in vivo: 3.97 ± 0.24 h
[11]
  total protein half-life in vivo: 2.35 h
[12]
  total protein half-life in vivo: 4.46 ± 0.45 h

## MTVQDYLLKFRKISSLESLEKLYDHLNYTLTDDQELINMYRAADHRRAELVSGGRLFDLGQVPKSVWHYVQ
[1]
  total protein half-life in vivo: 6.59 ± 0.11 h
[4]
  total protein half-life in vivo: 5.67 ± 0.55 h
[5]
  total protein half-life in vivo: 4.11 ± 0.46 h
[9]
  total protein half-life in vivo: 3.59 h
[10]
  total protein half-life in vivo: 6.7 h
[11]
  total protein half-life in vivo: 2.63 h
[12]
  total protein half-life in vivo: 6.54 ± 0.37 h

From the supplement of paper PMC11246515
